According to the supplement of paper PMC11316812:
± gives the standard deviation of the averaged measurements.

Tests used:
MCF7 = assay: percentage of EdU-negative (G0-arrested) nuclei per well, 72 h; higher = more G0 arrest; conditions: reference: sequence is the full UniProt precursor, the tested protein was the secreted form or ectodomain
hTERT-HMEC = assay: as above; conditions: reference: sequence is the full UniProt precursor, the tested protein was the secreted form or ectodomain
[1] = protein concentration 0.01975 µM
[2] = protein concentration 0.1975 µM
[3] = protein concentration 0.0225 µM
[4] = protein concentration 0.02778 µM
[5] = protein concentration 0.2778 µM
[6] = protein concentration 0.0145 µM
[7] = protein concentration 0.00669 µM
[8] = protein concentration 0.0669 µM
[9] = protein concentration 0.03125 µM
[10] = protein concentration 0.3125 µM
[11] = protein concentration 0.0357143 µM
[12] = protein concentration 0.357143 µM
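Note: secreted proteins added to cultured cells, EdU pulse at the end, nuclei found by Hoechst imaging, EdU status from nuclear versus surrounding ring intensity ratio, PBS as neutral control.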

Sequence | percentage of EdU-negative (MCF7; [3]) [%] | percentage of EdU-negative (MCF7; protein concentration 0.225 µM) [%] | percentage of EdU-negative (hTERT-HMEC; [3]) [%] | percentage of EdU-negative (hTERT-HMEC; protein concentration 0.225 µM) [%] | also measured
MGPLMVLFCLLFLYPGLADSAPSCPQNVNISGGTFTLSHGWAPGSLLTYSCPQGLYPSPASRLCKSSGQWQTPGATRSLSKAVCKPVRCPAPVSFENGIYTPRLGSYPVGGNVSFECEDGFILRGSPVRQCRPNGMWDGETAVCDNGAGHCPNPGISLGAVRTGFRFGHGDKVRYRCSSNLVLTGSSERECQGNGVWSGTEPICRQPYSYDFPEDVAPALGTSFSHMLGATNPTQKTKESLGRKIQIQRSGHLNLYLLLDCSQSVSENDFLIFKESASLMVDRIFSFEINVSVAIITFASEPKVLMSVLNDNSRDMTEVISSLENANYKDHENGTGTNTYAALNSVYLMMNNQMRLLGMETMAWQEIRHAIILLTDGKSNMGGSPKTAVDHIREILNINQKRNDYLDIYAIGVGKLDVDWRELNELGSKKDGERHAFILQDTKALHQVFEHMLDVSKLTDTICGVGNMSANASDQERTPWHVTIKPKSQETCRGALISDQWVLTAAHCFRDGNDHSLWRVNVGDPKSQWGKEFLIEKAVISPGFDVFAKKNQGILEFYGDDIALLKLAQKVKMSTHARPICLPCTMEANLALRRPQGSTCRDHENELLNKQSVPAHFVALNGSKLNINLKMGVEWTSCAEVVSQEKTMFPNLTDVREVVTDQFLCSGTQEDESPCKGESGGAVFLERRFRFFQVGLVSWGLYNPCLGSADKNSRKRAPRSKVPPPRDFHINLFRMQPWLRQHLGDVLNFLPL | – | – | – | – | percentage of EdU-negative (MCF7; [1]): 27.3 ± 1.1%; percentage of EdU-negative (MCF7; [2]): 27.9 ± 2%; percentage of EdU-negative (hTERT-HMEC; [1]): 5.66 ± 0.4%; percentage of EdU-negative (hTERT-HMEC; [2]): 16.21 ± 0.11%
MPGAAEALPTVTVTLVAGAVPPASGALTAHCIGGFWREVGVASDQSLVLTAPKRVEGLFLTLSGSNLTVKVAYNSSGSCEIEKIVGSEIDSTGKFAFPGHREIHVLDTDYEGYAILRVSLMWRGRNFRVLKYFTRSLEDKDRLGFWKFRELTADTGLYLAARPGRCAELLKEELI [Q6JVE9] | 26.5 ± 1.8 | 31 ± 2.1 | 5.03 ± 0.21 | 9.51 ± 1.1 | –
MSRPQLRRWRLVSSPPSGVPGLALLALLALLALRLAAGTDCPCPEPELCRPIRHHPDFEVFVFDVGQKTWKSYDWSQITTVATFGKYDSELMCYAHSKGARVVLKGDVSLKDIIDPAFRASWIAQKLNLAKTQYMDGINIDIEQEVNCLSPEYDALTALVKETTDSFHREIEGSQVTFDVAWSPKNIDRRCYNYTGIADACDFLFVMSYDEQSQIWSECIAAANAPYNQTLTGYNDYIKMSINPKKLVMGVPWYGYDYTCLNLSEDHVCTIAKVPFRGAPCSDAAGRQVPYKTIMKQINSSISGNLWDKDQRAPYYNYKDPAGHFHQVWYDNPQSISLKATYIQNYRLRGIGMWNANCLDYSGDAVAKQQTEEMWEVLKPKLLQR | – | – | – | – | percentage of EdU-negative (MCF7; [4]): 25.1 ± 3.2%; percentage of EdU-negative (MCF7; [5]): 24.6 ± 1.1%; percentage of EdU-negative (hTERT-HMEC; [4]): 5.6 ± 0.68%; percentage of EdU-negative (hTERT-HMEC; [5]): 6.64 ± 0.1%
MKLCVTVLSLLVLVAAFCSLALSAPMGSDPPTACCFSYTARKLPRNFVVDYYETSSLCSQPAVVFQTKRGKQVCADPSESWVQEYVYDLELN [Q8NHW4] | – | – | – | – | percentage of EdU-negative (MCF7; [6]): 23.4 ± 2%; percentage of EdU-negative (MCF7; protein concentration 0.145 µM): 25.62 ± 0.055%; percentage of EdU-negative (hTERT-HMEC; [6]): 5.26 ± 0.85%; percentage of EdU-negative (hTERT-HMEC; protein concentration 0.145 µM): 6.68 ± 1.3%
MGRRDAQLLAALLVLGLCALAGSEKPSPCQCSRLSPHNRTNCGFPGITSDQCFDNGCCFDSSVTGVPWCFHPLPKQESDQCVMEVSDRRNCGYPGISPEECASRKCCFSNFIFEVPWCFFPKSVEDCHY | 23 ± 1.6 | 24.8 ± 1.3 | 5.31 ± 1.5 | 5.92 ± 0.79 | –
MAQHGAMGAFRALCGLALLCALSLGQRPTGGPGCGPGRLLLGTGTDARCCRVHTTRCCRDYPGEECCSEWDCMCVQPEFHCGDPCCTTCRHHPCPPGQGVQSQGKFSFGFQCIDCASGTFSGGHEGHCKPWTDCTQFGFLTVFPGNKTHNAVCVPGSPPAEPLGWLTVVLLAVAACVLLLTSAQLGLHIWQLRSQCMWPRETQLLLEVPPSTEDARSCQFPEEERGERSAEEKGRLGDLWV [Q9Y5U5] | – | – | – | – | percentage of EdU-negative (MCF7; [7]): 24.9 ± 1.6%; percentage of EdU-negative (MCF7; [8]): 23.9 ± 0.75%; percentage of EdU-negative (hTERT-HMEC; [7]): 5.37 ± 0.9%; percentage of EdU-negative (hTERT-HMEC; [8]): 6.01 ± 1.5%
MPPRGPASELLLLRLLLLGAATAAPLAPRPSKEELTRCLAEVVTEVLTVGQVQRGPCTALLHKELCGTEPHGCASTEEKGLLLGDFKKQEAGKMRSSQEVRDEEEEEVAERTHKSEVQEQAIRMQGHRQLHQEEDEEEEKEERKRGPMETFEDLWQRHLENGGDLQKRVAEKASDKETAQFQAEEKGVRVLGGDRSLWQGAERGGGERREDLPHHHHHHHQPEAEPRQEKEEASEREEKEVEQLEHLRDELKKVTETLGEQLRREG [I3L3R5] | 26.1 ± 0.53 | 26.5 ± 0.58 | 5.07 ± 1.4 | 7.54 ± 0.57 | –
MELQPPEASIAVVSIPRQLPGSHSEAGVQGLSAGDDSELGSHCVAQTGLELLASGDPLPSASQNAEMIETGSDCVTQAGLQLLASSDPPALASKNAEVTGTMSQDTEVDMKEVELNELEPEKQPMNAASGAAMSLAGAEKNGLVKIKVAEDEAEAAAAAKFTGLSKEELLKVAGSPGWVRTRWALLLLFWLGWLGMLAGAVVIIVRAPRCRELPAQKWWHTGALYRIGDLQAFQGHGAGNLAGLKGRLDYLSSLKVKGLVLGPIHKNQKDDVAQTDLLQIDPNFGSKEDFDSLLQSAKKKSIRVILDLTPNYRGENSWFSTQVDTVATKVKDALEFWLQAGVDGFQVRDIENLKDASSFLAEWQNITKGFSEDRLLIAGTNSSDLQQILSLLESNKDLLLTSSYLSDSGSTGEHTKSLVTQYLNATGNRWCSWSLSQARLLTSFLPAQLLRLYQLMLFTLPGTPVFSYGDEIGLDAAALPGQPMEAPVMLWDESSFPDIPGAVSANMTVKGQSEDPGSLLSLFRRLSDQRSKERSLLHGDFHAFSAGPGLFSYIRHWDQNERFLVVLNFGDVGLSAGLQASDLPASASLPAKADLLLSTQPGREEGSPLELERLKLEPHEGLLLRFPYAA | – | – | – | – | percentage of EdU-negative (MCF7; [9]): 23.1 ± 0.58%; percentage of EdU-negative (MCF7; [10]): 27.1 ± 0.54%; percentage of EdU-negative (hTERT-HMEC; [9]): 5.08 ± 0.89%; percentage of EdU-negative (hTERT-HMEC; [10]): 8.07 ± 1.1%
MARFPKADLAAAGVMLLCHFFTDQFQFADGKPGDQILDWQYGVTQAFPHTEEEVEVDSHAYSHRWKRNLDFLKAVDTNRASVGQDSPEPRSFTDLLLDDGQDNNTQIEEDTDHNYYISRIYGPSDSASRDLWVNIDQMEKDKVKIHGILSNTHRQAARVNLSFDFPFYGHFLREITVATGGFIYTGEVVHRMLTATQYIAPLMANFDPSVSRNSTVRYFDNGTALVVQWDHVHLQDNYNLGSFTFQATLLMDGRIIFGYKEIPVLVTQISSTNHPVKVGLSDAFVVVHRIQQIPNVRRRTIYEYHRVELQMSKITNISAVEMTPLPTCLQFNRCGPCVSSQIGFNCSWCSKLQRCSSGFDRHRQDWVDSGCPEESKEKMCENTEPVETSSRTTTTVGATTTQFRVLTTTRRAVTSQFPTSLPTEDDTKIALHLKDNGASTDDSAAEKKGGTLHAGLIIGILILVLIVATAILVTVYMYHHPTSAASIFFIERRPSRWPAMKFRRGSGHPAYAEVEPVGEKEGFIVSEQC [Q6UX71] | 27.4 ± 2.7 | 26.561 ± 0.011 | 4.63 ± 0.96 | 7.25 ± 1.4 | –
MGLFRGFVFLLVLCLLHQSNTSFIKLNNNGFEDIVIVIDPSVPEDEKIIEQIEDMVTTASTYLFEATEKRFFFKNVSILIPENWKENPQYKRPKHENHKHADVIVAPPTLPGRDEPYTKQFTECGEKGEYIHFTPDLLLGKKQNEYGPPGKLFVHEWAHLRWGVFDEYNEDQPFYRAKSKKIEATRCSAGISGRNRVYKCQGGSCLSRACRIDSTTKLYGKDCQFFPDKVQTEKASIMFMQSIDSVVEFCNEKTHNQEAPSLQNIKCNFRSTWEVISNSEDFKNTIPMVTPPPPPVFSLLKISQRIVCLVLDKSGSMGGKDRLNRMNQAAKHFLLQTVENGSWVGMVHFDSTATIVNKLIQIKSSDERNTLMAGLPTYPLGGTSICSGIKYAFQVIGELHSQLDGSEVLLLTDGEDNTASSCIDEVKQSGAIVHFIALGRAADEAVIEMSKITGGSHFYVSDEAQNNGLIDAFGALTSGNTDLSQKSLQLESKGLTLNSNAWMNDTVIIDSTVGKDTFFLITWNSLPPSISLWDPSGTIMENFTVDATSKMAYLSIPGTAKVGTWAYNLQAKANPETLTITVTSRAANSSVPPITVNAKMNKDVNSFPSPMIVYAEILQGYVPVLGANVTAFIESQNGHTEVLELLDNGAGADSFKNDGVYSRYFTAYTENGRYSLKVRAHGGANTARLKLRPPLNRAAYIPGWVVNGEIEANPPRPEIDEDTQTTLEDFSRTASGGAFVVSQVPSLPLPDQYPPSQITDLDATVHEDKIILTWTAPGDNFDVGKVQRYIIRISASILDLRDSFDDALQVNTTDLSPKEANSKESFAFKPENISEENATHIFIAIKSIDKSNLTSKVSNIAQVTLFIPQANPDDIDPTPTPTPTPTPDKSHNSGVNISTLVLSVIGSVVIVNFILSTTI [Q14CN2] | 26.84 ± 0.26 | 30.6 ± 2 | 6.239 ± 0.015 | 66 ± 6.4 | –
MAAAAATKILLCLPLLLLLSGWSRAGRADPHSLCYDITVIPKFRPGPRWCAVQGQVDEKTFLHYDCGNKTVTPVSPLGKKLNVTTAWKAQNPVLREVVDILTEQLRDIQLENYTPKEPLTLQARMSCEQKAEGHSSGSWQFSFDGQIFLLFDSEKRMWTTVHPGARKMKEKWENDKVVAMSFHYFSMGDCIGWLEDFLMGMDSTLEPSAGAPLAMSSGTTQLRATATTLILCCLLIILPCFILPGI [Q9BZM5] | – | – | – | – | percentage of EdU-negative (MCF7; [11]): 22.2 ± 0.6%; percentage of EdU-negative (MCF7; [12]): 25.5 ± 0.78%; percentage of EdU-negative (hTERT-HMEC; [11]): 4.46 ± 0.35%; percentage of EdU-negative (hTERT-HMEC; [12]): 5.89 ± 0.34%
MAILMLSLQLILLLIPSISHEAHKTSLSSWKHDQDWANVSNMTFSNGKLRVKGIYYRNADICSRHRVTSAGLTLQDLQLWCNLRSVARGQIPSTL [Q6UY13] | 26.9 ± 1.6 | 27.81 ± 0.22 | 4.87 ± 0.78 | 5.92 ± 0.39 | –
MKALGAVLLALLLFGRPGRGQTQQEEEEEDEDHGPDDYDEEDEDEVEEEETNRLPGGRSRVLLRCYTCKSLPRDERCNLTQNCSHGQTCTTLIAHGNTESGLLTTHSTWCTDSCQPITKTVEGTQVTMTCCQSSLCNVPPWQSSRVQDPTGKGAGGPRGSSETVGAALLLNLLAGLGAMGARRP [Q8IV16] | 28.3 ± 1.3 | 24.9 ± 0.96 | 4.99 ± 0.54 | 4.82 ± 0.83 | –
